This series can be described thus: soluble on expression in E. coli; label from the status in PepcDB or PDB records.
Take “GPGSMDLLGSQIAAALEEGSRKRKRDVEEGCSALVSHVNSTLDVITTDVRNTLTEQHCEMEERVNRLMKMAGDFATAVDTWQKKASDSVCAVESQQQLLWELLQDVEKRAQERKKEMLKRQEQRMEELRTMLLERIQKAEASMQL”: the “soluble on expression in E. coli” value is “not soluble”.
For the sequence “GPGSMDPLCSPSAVSINGTPQTSVVNTSSTTSVVASPARPKLNRSVKFDPTIGGPLHSGDLSLDTSFVHGAGGDADAREHYGRRGRADEAATDSPLYSGDVLHEHEELLPFQLTREDVAAAFEFLDVNGSGLLTMGNLKHRLSAFYPHLTSKEYKFLVEDPSGSTGGGGTASSAARSAVAARHGGAADGCGGSTGGPTTSSLAQAASSARPSNLSFDDGGDAVHANGALSGEGVASGVGGSNATSARAGLDVDQLWDLINSFQQLQRTFGAAQAGQAEGQNAQNTRSAFNSSFDAYLVGTHGTQGIRSADIGFDAVGEAFRIYDPHNTHYVEEEVLSCIMARVGFGELTEEELAVLVSTADFDGDGRISLEDFRRLVSMKGRFEK”, the “soluble on expression in E. coli” value is reported as “soluble”.
The same measure for “GPGSMDSSAGALPATAHSSSNGAASIENVFAGLAWVRDLTDASLAAERVHNAFMQVVFSFVPEYDQDDDDDSATHRFVTAAERQKEAERDRRLREEARRELENLRNEPLSDAGDSGQRSDDEEDQRSEEANLADFETNEFMHWIEAGASDRFAAPRHEIDEKGLRDDPRVQVGADGAWQDYGVRSECNMSGATQGGARGAASAPRW”: “soluble”.
As for “GPGSMDYPKKNQAAPAEGQTVRLTITSRNAKAVESVTSQLLTRARDEKVTIHGPVRLPTRTLKITTRKTPCGNGTNTWDTFELKIYKRIIDLHAPTEQVKKITSFTMESGVDVSITILDR”, the “soluble on expression in E. coli” value is given as “soluble”.
Next, “GPGSMEETVEHHFVEPNNISHMERHTAYATGPLDIDGGSSDSNCVLTAPSMTVTTSADGSSFVQLTEEDMQLMPEEQSISGGSYDETRTPESVNVVNS”: “not soluble”.
Next, “GPGSMEGPFLSRSIQYVERWLAEIVATKGTRAAATGSSEKAVAQKRGKATATAAAETGATSMSKCRFVVGRVNSVRPHPESQKLYIEEIDLGEEGGKCRTILSGLQEYVKQEDFLNRLVLVIANLEPRKIGGIPSEGMVLCASCNDEGSRSVVLLDVPEGTPVGERILFEGHEGPYEPVLKKKLAKHFEEVAAELRTNDKGEVVWRDMPFRTSCGIITASIPNGSVS”: “not soluble”; “GPGSMFHRAFVSSSDLTGCTIALSSVCTQKRYWAKPKKRPKVGQGFHEKAQKWREEYLLDRHRALADSLRAYVEFSTSKRVEPWDARFKPFDRIEKDGVYVLMRYMMEEKLQLCNYHHRPVKRLFCNIGLMGPQITTKARWKPYRFATNPAGTSKAERMYQRDKTVYTHGHND”: “not soluble”; “GPGSMFILADQLALPLPRSPLFFDVFDFSLEHTAMSQEAGCDTKGGGSTVTSVTAGTSGKHEETPVVTEDSSFVYACRLCRRILFTHEEIMPHSADSSSKGPKAFGRRGAPKQQSDQQNAGVCTSYFLNPDVSIWVAAESREAHCESGGTSVLPDTVYCPNNSCSAKIGTQSWVGSQCSCGVWVTPAFKIHGRAVDKLQSQ”: “not soluble”.
Next, “GPGSMFSLVRGLYSSIFADDTRKVLIVGLESSGKTTLSEQLKHMYATESSKNGANSSTTEENSGDATASEVNYNFPTPAPVESLRKKIRPTTGLNRSSVTHVTTPPQHETPNVSLTPLTTPLILWDIGGSLRPLWGNFFGTCHGVIFVVDSTLGEATSNGCSEGGRKTSPDQVGTSEDDESDVGAQPNSPIGDVREGERSQFLRKLYAKDALILRQMFSHPLLAGAPLLIVSNKVDAANHHTLVEIQDALRLVDVALMDEFYADDCVVGEPVYGELHRNGEGDYEGPPDRSAYDKLSNEKSFGGVATPPPGSSGIGNRVMRLVEMSALHGTGVVDGMNWLVAQMRDSGRQPLPDDGK”: “not soluble”.
Consider “GPGSMGADIVEVDVWRTSDGALILMHDETLDRTTNGTGRVCDHTLAEVRALRLKDGLGNMTEFTVPTVEEVLLLAKDRAILNLDKADVYLDELYPLLVKTGMVEQTILKSEIPFDELCKRYSADLLNRVIFMPILNITDTTTYKNIDRAFAANHALYEVNFEKENADVLQYIRKLAKNSGAALWINTIWPTTCGGYSDDHALRDKDANWGYVVDRIGAGIIQTDRPAMLLAYLQERGCR”, for which the “soluble on expression in E. coli” value is “not soluble”.
Regarding “GPGSMGMSVTMINAIPLLRSMHANCVCPVCFEVFKKPVCFPCGHILCRACATRCIAARPRCPLCNQAVPNMRHCAPLPQLSLLCVLTREVGLRASGLQLRSSVQNAATPLSHRNHDSSMKRHRGATADDAVEETQGEHQAPRPRRSSLSPPPEQRPFLSLREPRASHRVANAVAATEGSTANHAQHTSLPELLRAAAGETQRLQSESPPPPLLMVGEGDDVLLGEAPHRSIIAQVTTSLPSAIAHRVGDSGALGRGQDQPPTPTPPPALSPSPAPFSTPLQLMCNHITDHADQLDSTPLLSPLPFTAFAVVEAASVTAAASVTHRSAQASSRVLATEHASNAKKASSWSLWRRGRGVIHCTLTPPAARLLARQSVVADGAGRGKTEAASKTASSSSAASADTAASLWHRFGCCALCGLDVVQRAAVRQRLQHLLRSPTAHCDPAELAMQTEESLSLLLGPLWGVCCEVQEHSTNIAQSQVSTCEGEYTTTELDAVQGSYCCPCRGEVTAHHVTGVAHHNCLAWAGLLDFFTNTSLEDLPAAAAAGVYFVPSMTASLHMTVPLQDPLGVLAARTSGRVARWQLLAATLCHMHQRDADEESELGKRVQTSGESGAEGPLMTPRCALCEDGAPLLASNSPSFPFGAGLRVCEGTERGESSCGQQYHYPCALLAGASACIIFGLEDECNVLDASASTPVRDRSAGGKRRGVERPVEVWCGVCHERHEVCRRRV”, the “soluble on expression in E. coli” value is “not soluble”.
Take “GPGSMGRQKSRNLWNDGEGTKSVCRPQQVTVAKGWRVTPDLLPAKPLAPRRRKYAPIRPNNRDAVAIPLGGQSYNPLDEEHQEALAKAVRQLSKKKLKDEKFVKMMTMGRDKKYTGNLSADKTWEEEVQETEPATAKTPKKKRTKTAPASTGASSSAPSSAPSPVTHNGNKAKHEKVAAAPAAVAKNGKTAKKQKKKTKKATAEEAKRAMTHRRHPKRGVVAKETDELDVLLAAHKATACKREVARQKRRAAKKANLAIKHYGRHYHTPLVLDVTPSDKLVGSLRHLSGGYVHPALERMKSLEERNLVPARMRHTYNKRKVLKPKGEVRVKREEFGVMPMTGF”: the “soluble on expression in E. coli” value is listed as “soluble”.
Regarding “GPGSMGSKYDRVKVKVHLDDEHYYILSRFILSKMLTACKLPTTAAVCVSLALKKSLVDQERLDISQRELEAATLSTMAQHGYGAAFTRLLPVMTRFFIERTPLIVFMAGSGCCGKTSMARSLSVRLNTHNIVSTDLLLDILRATHHAYPSSALRGDLVELSDERVLPCVSEHSLWLSDTLAVDDFVRLWRTLTRAIRSLVEGEVEKALVEGKVLIVEGSLIDLSLYHNYLLDSFQSQRGVIAVAFHISSDEMSRNFAVERLVSTYRSVLPLSYTDNYNGALEWVQCRLRAIEGEHLRVLRGDSSAMQLHCIDDSLCDPATGDSTSVRDLSESYSNETSSTCDTRQLRLSQDNAEIVPVYGVTNSMAASSRVCESMHGLILDRIISALKQKGPLNLEHGNVVWCQAMDSEYMSPTNDT”, the “soluble on expression in E. coli” value was “not soluble”.
Regarding “GPGSMKKFMLNTKASLGLVGEKTVDEDYNKRSASLKALNEALNEYSTAMDKAKHAMREVMHSLGKASKAFEKLNSGSCIPEPLKDFSEDFKKAIEHLQQYALQEFMNTMETTVIKTGHAIRADYEECVRVDQQRQKTVNEYDVYRSAVDKKETEYAKKGKDLKESKTYEEDTKTRDELKADYEASDKLFKSSHDALESNVVSKGRLCMREFFCCTSEFLSALSTEMKRLHEKSLLLGA”, the “soluble on expression in E. coli” value is “not soluble”.
Next, “GPGSMKKTVAAAPPKSPAPAKSKISVTRTGVNTTYPMPPPMPEKNYAPFFAEGCQTIAASKASMPPVQPASPLPPMHSAPPTASVVSNSIPPSSPATAPGERSPAVAARSVPTRFSPATVPRHHMNPNATEFMPGRRNGPDGGLEALPTSTADMELAKTPAGAAAAAVHAPSLPGAVRRSLQNSPIIQPSRLSVKSASEIEAISKNSALNAAAAAYVPQRTLARVVLTQPSPLALAPSEDPAKNNIEMMLDDLWCLFYLPTTLGENIKEEDYNPTLVFRVDSILTFWRVVNNIAAPSELQLSTLYLFRDGIDPKWEDPANRDGGIVKVKATAAQVDEAWELLLCRTIGDSWSPSVRETVNGVVLKVRERAYWLELWVTKNSSALQKDLAELWHPILGASFATTYLTHAMMQERSHAAAALAAEKQKKNRRRY”: “soluble”; “GPGSMKLLKFVNSDAPHTLADVQLRNQRLWFPCRHGNAAVAAKSWTLTAASPASVSGGYWLLDDDSQPICEITDVLLALPETAANAAGSSGTFAPRGVTDKDVDGIDFRSKMGRQMERERATYGATSKTATKSARTMMNAEEMTEKKNERMKREREAVAEAIEDNDASVMEPRKKERKHSKK”: “soluble”.
The same measure for “GPGSMLLMPFPLVPSPPPTRLSGHLTPVALVGVLVCASPRCAPKPRPRPWNASHTHTHTHTSPRPLIAHTVSLCVSVVRKHLFFFRRFLRLPPSPNRKRNQLTGAAMLTRRAVSSAVGAAMVTSSSVSMQRRYDHDRWYGHALELDTHNYKFNGEPPSWMKTRAKTEEETSFAKSVLPHIDFASSYECLLFDADRLNTNLNRKEFGNEIKYRLEKQANTVARAQQLLRDKKAGTGPDAEKVENTLIARIFDEEHVQAEMKYVKCIRANELAEDNRLDILPGGSPNSLREKTRWNLNTELHPADRAEIGARLTAWLPEKYHIVYFDDFQTVAANDATARKEMLEIVESVQKEYTAEAKEGGYESDLKEAVAELMDDVDPTRTITMEAIKSCKDLQQLEDWSRQVHEYNGDDRIIAIYARAAEITKNVEHQALVRQMREWRKLATKNESKL”: “not soluble”; for “GPGSMLRGCAAACGQCRESASAVYGQALWLLLRPWTRSPSLPSSTHARLGLRRALGTVTSSLSSSSSCATVHHPTRWVSRKSIEEQLPSNIKVDPNASATAGRENEGLGRDAFSSGINGIYGNRAESAMRGMLGPQGQADARESRAVPILGRASVQGTKYTLDRSTVFEHWRFHCSEPVGWHLSKLGSTTCKMVNDVNEAVESLQLQIIKGCNVFEIDGAASEVHQSIARGIYEALQAFELDRSGFVMVARCGLIKQPRFQDEITRVEASNTAAVRNRIIPIFERYKASSLPSTSLKSGFRISELDDSQLARLNLRRVDRTTAAGLSPDWLDAFFTNVAYNTRLECIDVLLLEGMHTLFDGRPDEHVDDDILQLFVYLERQVKQGVLQYYGVCSPHLAPPVPRNYPEMPPDALVPDKYRTPPKEPATINLYRLMALAERAGGADHHFRFVQYPFNLTQHQAISSPLPYDANHTLATLCKALGLTALGYSPLEAPNLMQLPERYHNFPMEADLKALRMNFFTVCERSVLKEMEIKDTIDKGPDTLPPLEHLFVASVYLAAQRQFTNLFFFTDWANYYMTPRFRRAMTRFKEASSADLKEWAKQYEQLISDLLRMRQRMFQHKHGKQAGLVNMAIDYVSPTLARCPMLNQKAINFATYGCNVLLCGFHVSRYFHEATELNPAKDGNLPIPEEELLALCSAETVSYANVSPPHPYMLEPLMGEGKISKQPSKGAAYLVRIDPQNPKFPDIPEELQTGDSDGEAPVSADGATAALHKDEAPEKAVKE”: “not soluble”; for “GPGSMLWVDRYRPKTLKDVELYPELKEVLTRLSKAQDLPHLLFYGPSGSGKKTRAMAMLHEIYGPSVFSVRLEHKSVQVSDSKVVDIATLSSPHHIDINPSDAGNYDRAIVMQMIREIAQTVPLHSTSGNRKNVPYKVVVLNEVDKMSRTAQHALRRTMEKYMNTCRLFLLCNSTSRLIPPLRSRCLGIRVASHSKDNLKLAVQRVCEGEGRPLPSVAFLNSLALRSDGNLRRGLLMLEASALAKVDWSGNGAAIPQADWKLFLDEISHDIVAEQTPKRLHEVRLKFYDLLAQCISGETILKTLVDSLLAAVAPALQRPLIELAAKYDHNMKLGTKPILHLEAFVAAVMKLIKQQ”: “not soluble”.
